Values quoted from earlier work in article PMC5753338.

Target: BAIAP2L1/IRTKS SH3 (Homo sapiens) (UniProt Q9UHR4)
Chain of UniProt Q9UHR4 (Q9UHR4 336-405): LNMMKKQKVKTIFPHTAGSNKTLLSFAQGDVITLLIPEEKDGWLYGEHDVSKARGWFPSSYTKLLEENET

For EspFU PxxP motifs (from UniProt P0DJ88), the Kd is given as 500 nM.
